Test results reported in US20120237948A1 (SHIONOGI, published 2012).

Experiments:
Test in all cases: competitive ELISA against the biotin-labeled SEQ ID NO: 2 peptide
[1] = target: T1, MMP13-undigested human type I collagen (human, UniProt P02452 162-1218; P08123 80-1119)
T1 construct: The chain composition comes from general knowledge; also called non-digested collagen (type I)
Description: (§1) To 10 μg/10 μl of a solution of human type I, type II, or type III collagen (Chondrex), 10 μl of 2 × enzyme reaction buffer (50 mM Tris buffer, pH 7.6, containing 0.3 M NaCl, 10 mM CaCl₂, and 0.005% Brij35) was added for neutralization. To the solution, 0.2 μg of activated human MMP13 (human Pro-MMP13 (Calbiochem), activated by incubation with 1 mM APMA at 37° C. for 2 hours), and the mixture was allowed to react overnight at 37° C. Subsequently, stop solution (EDTA, final concentration 5 mM) was added to prepare the natural type neoepitope solution.
(§2) To a 384-well microtiter plate (Nunc), 35 μl of Tris buffer (50 mM Tris-HCl, pH7.5) containing 0.35 μg of anti-mouse IgG-Fc antibody (Jackson Immuno Research) was added and incubated overnight at 4° C. for adsorption. Each well was washed once with 90 μl of washing solution (physiological saline containing 0.01% Tween20), and then 0.1 ml of Block Ace (Dainippon pharmaceuticals) was added. The plate was allowed to stand for 2 hours at room temperature for blocking (an anti-mouse IgG antibody-solid-phased plate). After each well was washed once with 90 μl of the washing solution, 10 μl of buffer A containing 6.4-250 nM of the natural type neoepitope solution was mixed with 10 μl of buffer A containing 1 ng/ml of the biotin-labeled neoepitope peptide (SEQ ID NO: 2) and 200 ng/ml of Streptavidin-HRP, and 10 μl of buffer A containing 15 ng/ml of the anti-neoepitope antibody (20A10). Then the mixture was allowed to react at 4° C. for 16 hours.
(§3) Subsequently, each well was washed three times with 90 μl of the washing solution, and 25 μl of TMB-Substrate Chromogen (DAKO) was added and incubated for 30 minutes at room temperature for color development, followed by the addition of 25 μl of 0.05 M sulfuric acid to terminate the reaction. Then, the absorbance at 450 nm was measured.

[2] = target: T2, MMP13-undigested human type II collagen (human, UniProt P02458 182-1241, limits assumed)
T2 construct: Triple helix of three chains; also called native type II collagen; non-digested collagen (type II)
Description: as §1, §2, §3

[3] = target: T3, MMP13-undigested human type III collagen (human, UniProt P02461 154-1221)
T3 construct: also called non-digested collagen (type III)
T3 sequence (looked up): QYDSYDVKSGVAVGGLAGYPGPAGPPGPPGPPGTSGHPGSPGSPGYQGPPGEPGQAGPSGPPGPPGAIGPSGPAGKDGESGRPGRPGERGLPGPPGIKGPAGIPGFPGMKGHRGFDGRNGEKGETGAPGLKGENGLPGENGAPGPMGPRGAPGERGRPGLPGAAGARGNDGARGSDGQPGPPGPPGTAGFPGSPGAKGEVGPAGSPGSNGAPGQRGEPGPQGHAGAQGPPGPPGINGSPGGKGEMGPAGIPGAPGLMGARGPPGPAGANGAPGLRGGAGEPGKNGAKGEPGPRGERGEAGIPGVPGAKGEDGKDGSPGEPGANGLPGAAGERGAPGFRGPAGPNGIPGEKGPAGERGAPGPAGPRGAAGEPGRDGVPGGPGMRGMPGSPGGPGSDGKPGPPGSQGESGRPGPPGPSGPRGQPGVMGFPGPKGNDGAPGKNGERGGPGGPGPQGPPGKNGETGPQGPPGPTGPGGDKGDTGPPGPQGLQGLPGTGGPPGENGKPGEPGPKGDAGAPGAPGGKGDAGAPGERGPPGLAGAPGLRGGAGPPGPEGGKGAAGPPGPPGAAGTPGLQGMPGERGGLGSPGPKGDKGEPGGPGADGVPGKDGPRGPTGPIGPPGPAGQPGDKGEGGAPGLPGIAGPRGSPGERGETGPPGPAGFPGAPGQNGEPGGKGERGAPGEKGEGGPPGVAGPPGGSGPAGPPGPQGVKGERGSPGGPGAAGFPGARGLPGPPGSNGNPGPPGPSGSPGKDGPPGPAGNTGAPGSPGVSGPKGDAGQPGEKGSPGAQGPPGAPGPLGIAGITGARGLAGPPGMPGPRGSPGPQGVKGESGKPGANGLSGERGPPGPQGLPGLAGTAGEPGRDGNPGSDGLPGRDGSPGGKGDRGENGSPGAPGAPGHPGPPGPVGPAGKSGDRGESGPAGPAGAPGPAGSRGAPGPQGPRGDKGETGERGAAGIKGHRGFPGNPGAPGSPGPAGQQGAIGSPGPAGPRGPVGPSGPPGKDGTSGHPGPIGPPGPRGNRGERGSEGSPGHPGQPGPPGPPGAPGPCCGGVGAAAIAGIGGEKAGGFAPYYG
Description: as §1, §2, §3

Measured: binding result

T1 sequence (P02452 162-1218, chain 1 of 2): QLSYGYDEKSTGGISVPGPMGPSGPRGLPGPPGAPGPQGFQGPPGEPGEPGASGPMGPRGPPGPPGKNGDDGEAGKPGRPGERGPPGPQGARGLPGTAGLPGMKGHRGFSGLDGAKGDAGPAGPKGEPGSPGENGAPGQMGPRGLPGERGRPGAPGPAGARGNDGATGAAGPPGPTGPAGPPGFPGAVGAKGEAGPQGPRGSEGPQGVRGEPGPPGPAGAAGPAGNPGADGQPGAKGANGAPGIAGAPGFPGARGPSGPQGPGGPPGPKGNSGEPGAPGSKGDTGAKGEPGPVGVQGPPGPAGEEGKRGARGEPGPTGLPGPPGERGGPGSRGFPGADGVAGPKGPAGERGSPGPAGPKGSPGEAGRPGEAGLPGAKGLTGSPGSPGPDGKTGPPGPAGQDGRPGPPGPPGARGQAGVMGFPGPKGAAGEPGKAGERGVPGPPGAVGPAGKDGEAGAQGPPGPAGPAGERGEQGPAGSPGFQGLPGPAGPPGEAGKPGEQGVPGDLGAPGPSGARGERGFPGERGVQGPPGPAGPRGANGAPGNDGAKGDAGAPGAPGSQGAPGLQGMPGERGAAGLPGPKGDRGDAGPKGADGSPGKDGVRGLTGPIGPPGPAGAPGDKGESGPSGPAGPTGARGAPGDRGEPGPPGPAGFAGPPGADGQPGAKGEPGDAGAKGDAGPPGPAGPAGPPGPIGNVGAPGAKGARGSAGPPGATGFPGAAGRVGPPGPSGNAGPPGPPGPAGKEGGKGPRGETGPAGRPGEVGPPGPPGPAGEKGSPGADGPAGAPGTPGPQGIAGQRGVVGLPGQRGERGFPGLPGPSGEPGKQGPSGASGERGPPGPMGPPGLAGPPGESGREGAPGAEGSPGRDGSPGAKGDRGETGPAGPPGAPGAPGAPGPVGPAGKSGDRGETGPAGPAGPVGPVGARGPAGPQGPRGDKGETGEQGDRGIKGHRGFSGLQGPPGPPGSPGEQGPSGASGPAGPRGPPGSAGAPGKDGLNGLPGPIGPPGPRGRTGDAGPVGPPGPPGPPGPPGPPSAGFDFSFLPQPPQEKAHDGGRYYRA
T1 sequence (P08123 80-1119, chain 2 of 2): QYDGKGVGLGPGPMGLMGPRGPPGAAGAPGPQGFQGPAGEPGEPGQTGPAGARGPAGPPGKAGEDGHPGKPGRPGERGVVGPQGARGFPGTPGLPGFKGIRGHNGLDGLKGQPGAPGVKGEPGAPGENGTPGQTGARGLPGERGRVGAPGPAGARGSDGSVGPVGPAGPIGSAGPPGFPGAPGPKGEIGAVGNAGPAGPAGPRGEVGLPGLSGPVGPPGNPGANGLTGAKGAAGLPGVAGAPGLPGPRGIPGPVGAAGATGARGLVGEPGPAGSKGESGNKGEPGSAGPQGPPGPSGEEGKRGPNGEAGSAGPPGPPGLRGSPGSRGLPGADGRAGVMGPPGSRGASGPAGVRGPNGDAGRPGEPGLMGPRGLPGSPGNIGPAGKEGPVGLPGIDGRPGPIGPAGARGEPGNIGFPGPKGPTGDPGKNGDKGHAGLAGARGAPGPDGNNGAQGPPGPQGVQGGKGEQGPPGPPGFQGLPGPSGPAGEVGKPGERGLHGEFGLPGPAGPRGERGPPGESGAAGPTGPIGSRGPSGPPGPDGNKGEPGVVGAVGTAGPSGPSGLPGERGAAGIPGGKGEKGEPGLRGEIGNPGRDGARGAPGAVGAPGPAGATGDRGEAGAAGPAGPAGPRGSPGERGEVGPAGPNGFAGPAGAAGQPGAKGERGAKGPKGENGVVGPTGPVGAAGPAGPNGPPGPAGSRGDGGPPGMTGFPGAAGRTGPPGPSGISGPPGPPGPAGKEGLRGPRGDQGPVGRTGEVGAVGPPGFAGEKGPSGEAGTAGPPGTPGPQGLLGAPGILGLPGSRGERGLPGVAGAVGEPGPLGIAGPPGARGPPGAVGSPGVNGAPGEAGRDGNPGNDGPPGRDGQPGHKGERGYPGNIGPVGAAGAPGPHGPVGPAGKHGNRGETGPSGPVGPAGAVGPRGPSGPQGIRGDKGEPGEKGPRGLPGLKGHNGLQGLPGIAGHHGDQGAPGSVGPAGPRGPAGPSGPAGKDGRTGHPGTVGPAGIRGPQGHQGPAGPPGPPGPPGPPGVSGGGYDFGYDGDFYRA
T2 sequence (P02458 182-1241 limits assumed): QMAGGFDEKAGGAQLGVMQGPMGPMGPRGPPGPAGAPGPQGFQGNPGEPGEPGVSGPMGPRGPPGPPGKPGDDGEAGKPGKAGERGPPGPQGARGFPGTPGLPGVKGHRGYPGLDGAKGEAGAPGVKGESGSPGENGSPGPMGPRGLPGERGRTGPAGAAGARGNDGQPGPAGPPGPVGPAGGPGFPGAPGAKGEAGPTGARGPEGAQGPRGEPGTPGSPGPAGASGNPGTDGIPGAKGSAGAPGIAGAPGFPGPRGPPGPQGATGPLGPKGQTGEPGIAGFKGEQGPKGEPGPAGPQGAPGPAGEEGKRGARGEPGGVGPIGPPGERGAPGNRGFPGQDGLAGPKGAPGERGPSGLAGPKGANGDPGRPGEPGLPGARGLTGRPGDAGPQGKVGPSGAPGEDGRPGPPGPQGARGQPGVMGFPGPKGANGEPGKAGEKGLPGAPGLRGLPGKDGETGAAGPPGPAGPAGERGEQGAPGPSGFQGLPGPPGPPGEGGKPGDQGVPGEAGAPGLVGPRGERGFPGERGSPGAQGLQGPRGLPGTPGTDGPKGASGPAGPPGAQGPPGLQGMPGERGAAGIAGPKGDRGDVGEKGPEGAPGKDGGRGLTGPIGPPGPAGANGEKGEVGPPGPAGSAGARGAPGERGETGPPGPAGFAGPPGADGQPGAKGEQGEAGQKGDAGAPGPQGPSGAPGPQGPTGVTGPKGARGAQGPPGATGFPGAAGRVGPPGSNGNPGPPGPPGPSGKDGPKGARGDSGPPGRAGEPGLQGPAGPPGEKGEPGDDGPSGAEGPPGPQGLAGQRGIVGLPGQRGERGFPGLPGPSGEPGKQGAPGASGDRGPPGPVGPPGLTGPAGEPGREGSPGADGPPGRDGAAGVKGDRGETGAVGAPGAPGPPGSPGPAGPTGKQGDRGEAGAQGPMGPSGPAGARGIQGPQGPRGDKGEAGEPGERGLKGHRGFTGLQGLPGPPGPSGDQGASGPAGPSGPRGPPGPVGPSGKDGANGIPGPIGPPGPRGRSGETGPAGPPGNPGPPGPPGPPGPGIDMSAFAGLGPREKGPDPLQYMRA

B1: anti-neoepitope antibody 20A10 (antibody, IgG1, V domains shown)
VH: QIQLVQSGPELKEPGETVRISCKASGYTFTKYGINWVKQAPGKGLEWMAWINTYSGMTTYADDFKGRFAFSLETSANTAYLQINHLKNDDTATYFCARSLGYDYGGFAYWGQGTLVTVSA
VL: DVLLTQTPLSLPVSLGDQAFISCRSGQTLVHDNENTYFHWYLQKPGQSPKLLIYKISNRFSGVPDRFSGSGSGTDFTLKISRVEPEDLGIYFCSQNTHVPFTFGSGTKLEIKR
notes: also called HRP-labeled 20A10
no binding: all assays above
